Data set [1] concerns T1, R5-XC1 peptide (free peptide, CQKHHNYLC).
T1 sequence: CQKHHNYLC

Data set [2] concerns T2, R4-C9 peptide (free peptide, CTLVPHTRC).
T2 sequence: CTLVPHTRC

From patent US20070254316 come the findings set out here.

As for “xPSM (extracellular portion of human PSMA, Tag-xPSM digested with enterokinase, no affinity tags)”, the “NAALADase activity (hydrolysis of N-acetyl-L-aspartyl-L-[3,4-3H]glutamate by purified xPSM)” value in data set [1] is listed as “two selected PSMA binding peptides enhanced, rather than inhibited, enzyme activity in a dose dependant manner”; in data set [2], “two selected PSMA binding peptides enhanced, rather than inhibited, enzyme activity in a dose dependant manner”.
